Source: publication PMC8456996
Read-outs that look alike come from different tables or passages of the source.

Assays:
Thioredoxin (hsTXN) [1] = biological target: T1, Thioredoxin (hsTXN) (Homo sapiens, UniProt P10599 1-105); assay: NMR HSQC titration
T1 sequence: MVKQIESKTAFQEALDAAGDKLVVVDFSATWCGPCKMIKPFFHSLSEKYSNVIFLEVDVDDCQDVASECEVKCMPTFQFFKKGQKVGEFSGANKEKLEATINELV

[2] = biological target: T2, Syntrophin-beta-1 PDZ domain (Homo sapiens, UniProt Q13884 111-196); assay: NMR HSQC titration
T2 sequence: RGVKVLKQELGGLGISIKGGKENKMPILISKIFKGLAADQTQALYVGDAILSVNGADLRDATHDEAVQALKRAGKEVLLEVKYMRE

[3] = biological target: FPR1 (FK506-binding protein 1) (Saccharomyces cerevisiae, UniProt P20081 1-114); assay: NMR HSQC titration
Sequence of FPR1 (FK506-binding protein 1) (P20081 whole entry): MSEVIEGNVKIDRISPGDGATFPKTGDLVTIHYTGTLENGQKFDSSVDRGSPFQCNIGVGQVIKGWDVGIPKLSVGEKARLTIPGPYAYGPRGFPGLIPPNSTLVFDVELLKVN

Thioredoxin (hsTXN) [4] = biological target: T1, Thioredoxin (hsTXN); assay: NMR HSQC titration; remark: listed apart in the source
[5] = biological target: T2, Syntrophin-beta-1 PDZ domain; assay: NMR HSQC titration; remark: listed apart in the source
[6] = biological target: T3, End binding protein 1 (dmEB1) (Drosophila melanogaster, UniProt Q0E9N1 1-291); assay: EMSA
T3 sequence: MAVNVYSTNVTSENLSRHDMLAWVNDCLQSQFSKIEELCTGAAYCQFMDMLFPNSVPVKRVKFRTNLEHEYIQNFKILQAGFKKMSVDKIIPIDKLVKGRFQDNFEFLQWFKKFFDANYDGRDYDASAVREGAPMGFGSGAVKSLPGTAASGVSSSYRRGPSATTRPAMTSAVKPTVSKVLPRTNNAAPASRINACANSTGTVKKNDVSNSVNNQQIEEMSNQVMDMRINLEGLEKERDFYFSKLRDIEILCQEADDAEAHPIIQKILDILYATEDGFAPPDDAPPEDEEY

TRIM25 PRY/SPRY domain = TRIM25 PRY/SPRY domain (UniProt Q14258 439-630); assay: NMR HSQC titration
Sequence of TRIM25 PRY/SPRY domain (Q14258 439-630): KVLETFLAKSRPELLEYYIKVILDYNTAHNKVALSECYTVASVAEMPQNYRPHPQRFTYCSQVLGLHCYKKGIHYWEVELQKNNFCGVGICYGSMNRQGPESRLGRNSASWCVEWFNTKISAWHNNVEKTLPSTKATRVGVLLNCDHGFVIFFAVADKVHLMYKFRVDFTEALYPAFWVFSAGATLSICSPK

## CCCCCCCC (ssRNA) [poly(C) 8-mer]
Thioredoxin (hsTXN) [1]
  binding result: no binding
[2]
  binding result: no binding

## UUUUUUUUU (ssRNA) [poly(U) 9-mer]
[3]
  binding result: no binding

## UUUUUUUU (ssRNA) [poly(U) 8-mer]
Thioredoxin (hsTXN) [4]
  binding result: no binding
[5]
  binding result: no binding

## UUUUUUUUUUUUUUUUUUUUUUUUU (ssRNA) [poly(U) 25-mer, 32P probe]
[6]
  binding result: binds

## AAAAAAAA (ssRNA) [poly(A) 8-mer]
Thioredoxin (hsTXN) [1]
  binding result: no binding

## UUUUUUUUUUUUUUU (ssRNA) [poly(U) 15-mer]
TRIM25 PRY/SPRY domain
  binding result: binds
